1 protein from article PMC12133307, “Structure, kinetics, and mechanism of Pseudomonas putida sulfoquinovose dehydrogenase, the first enzyme in the sulfoglycolytic Entner-Doudoroff pathway” (Biochemical Journal, 2025) can be followed below.

This data set concerns the molecule itself. The experiment in a line: SEC-MALS; SEC-MALLS, Superdex S200 10/300 GL, 100 mM Tris pH 7.5, 300 mM NaCl, 100 µl at ~2 mg/ml, 0.5 ml/min, 20 °C.

B1: Pseudomonas putida SQ dehydrogenase (PpSQDH) (enzyme, Pseudomonas putida SQ1)
chain: MNRHTDTHYPSLADKVVLISGGASGIGRAFVEAFVAQGSRVAFLDLDAEAGQGLAHALGANSLFLPCDVRDIERLKACVAEVERTWGAVDVLINNAARDDRHALADVSVEYWDERMQTNLRHAFFAAQAVAPGMARRGSGAIINMGSISWMRGRPGMVCYTTAKAALNGMTRTLARELGGQGIRINSLVPGAIRTERQDAMWAADPAGLEAASQAFIDQQMLKFRLDASDCARLALFLASDDSRGCTGQNFVVDAGLSIQ
notes: SQ dehydrogenase PpSQ1_00090 of Pseudomonas putida SQ1; Gln260 is the C-terminal residue; no step that removes the tag is described; A second preparation for kinetics was made in 'NEB T7 Express' E. coli (HisTrap, Superdex 75); also called sulfoquinovose dehydrogenase; PpSQ1_00090; source: E. coli BL21(DE3), purified (Ni-NTA IMAC, SEC)
With B1, the “stoichiometry N” value was determined as 4.
